Patent US20100028347A1 (Eli Lilly, published 2010)

Columns and labels:
mouse VEGFR-1 Fc = target: T1, mouse VEGFR-1 Fc (mouse, UniProt P35969 23-759, limits assumed); test: ELISA: antibody dilutions on plate coated with 1 µg/ml mouse VEGFR-1 Fc, HRP secondary, O.D. 450
T1 construct: not shown: Fc part; not described
T1 sequence (looked up): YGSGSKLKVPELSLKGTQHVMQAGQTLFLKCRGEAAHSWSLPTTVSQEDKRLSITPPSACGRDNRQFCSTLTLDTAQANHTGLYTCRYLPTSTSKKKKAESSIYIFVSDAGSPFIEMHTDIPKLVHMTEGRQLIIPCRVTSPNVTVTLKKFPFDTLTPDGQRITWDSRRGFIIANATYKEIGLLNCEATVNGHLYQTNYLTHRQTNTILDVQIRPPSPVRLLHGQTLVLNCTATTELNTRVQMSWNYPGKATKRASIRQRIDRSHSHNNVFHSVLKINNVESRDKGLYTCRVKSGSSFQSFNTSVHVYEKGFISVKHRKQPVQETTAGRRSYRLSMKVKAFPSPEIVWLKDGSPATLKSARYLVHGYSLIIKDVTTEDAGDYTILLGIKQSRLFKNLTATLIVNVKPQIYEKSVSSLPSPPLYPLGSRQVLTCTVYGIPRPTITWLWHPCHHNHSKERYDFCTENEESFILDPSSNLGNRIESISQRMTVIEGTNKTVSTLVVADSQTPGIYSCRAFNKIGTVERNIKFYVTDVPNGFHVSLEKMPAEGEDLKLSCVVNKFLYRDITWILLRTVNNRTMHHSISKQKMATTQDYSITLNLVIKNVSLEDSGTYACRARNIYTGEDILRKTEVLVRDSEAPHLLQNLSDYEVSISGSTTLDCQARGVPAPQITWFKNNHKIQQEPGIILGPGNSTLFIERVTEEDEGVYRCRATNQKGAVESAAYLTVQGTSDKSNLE
Procedure: (§1) To determine the specificity of an anti-VEGFR-1 monoclonal antibody to human VEGFR-I, purified antibodies 18F1 were tested in an ELISA-based assay. One μg/ml of recombinant human VEGFR-I Fc, mouse VEGFR-I Fc, mouse VEGFR-2 Fc, or human VEGFR-2 alkaline phosphatase was coated with PBS in a 96-well microtiter plates at 4° C. over night. After wash, the receptor coated plates were blocked with PBS containing 5% Dry Milk and 0.05% Tween 20. Serial dilutions of primary antibody 18F1 to human VEGFR-I, MF1 to mouse VEGFR-I, IC1 1 to human VEGFR-2, or DClOl to mouse VEGFR-2 were incubated in the receptor-coated plates for 30 minutes. After wash secondary anti-primary HRP conjugate antibodies was incubated in the plates for 30 minutes. Plates were washed and incubated with the substrate TMB (3,3′,5,5′-tetra-methylbenzidine) for color development. The absorbance at 450 nm was read as OD values for quantification of binding activity of antibodies. Data were analyzed using a GraphPad Prism Software.

[1] = target: T2, recombinant human VEGFR-1 Fc (human, UniProt P17948-2 27-687, limits assumed); test: ELISA: antibody dilutions on plate coated with 1 µg/ml human VEGFR-1 Fc, HRP secondary, O.D. 450
T2 construct: Bought from R&D Systems; also called rhuVEGFR-1 Fc; HuVEGFR-I-Fc; not shown: Fc part
Procedure: as §1

[2] = target: T3, human VEGFR-2 alkaline phosphatase (human, UniProt P35968 20-764); test: ELISA: antibody dilutions on plate coated with 1 µg/ml human VEGFR-2 alkaline phosphatase, HRP secondary, O.D. 450
T3 construct: also called huVEGFR-2-AP; not shown: alkaline phosphatase fusion partner; not described
Procedure: as §1

[3] = target: T4, soluble recombinant human VEGFR-1 alkaline phosphatase (human, UniProt P17948 27-758); test: blocking ELISA: antibody preincubated with VEGFR-1 AP, binding to PlGF coated plate
T4 construct: Made in house in stably transfected cells; also called rhuVEGFR-I AP; VEGFR-I AP; not shown: alkaline phosphatase fusion partner
Procedure: (§2) Specifically, hybridoma supernatants or purified antibodies were diluted in PBS with 5% FBS and 0.05% Tween 20 (ELISA buffer) and incubated in rhuVEGFR-I AP or AP coated 96-well microtiter plates for 30 minutes. Plates were washed with the ELISA buffer and incubated with goat anti-mouse IgG-horseradish peroxidase (HRP) conjugate (BioSource International, Camarillo, Calif.) for 30 minutes. TMB (3,3′,5,5′-tetra-methylbenzidine) substrate (Kierkegaard and Perry Lab, Inc., Gaithersburg, Md.) was used for color development following the manufacturer's instruction. The absorbance at 450 nanometers (nm) was read for quantification of binding activity of antibodies. For identification of the hybridomas producing anti-VEGFR-I antibodies, hybridoma supernatants were preincubated with VEGFR-I AP for 1 hour. The mixtures were incubated with the ELISA buffer in VEGF or P1GF coated 96-well microtiter plates for 1 hour. PNPP (p-nitrophenyl phosphate) substrate for AP was used for color development following the manufacturer's instruction. The absorbance at 405 nm was read for quantification of VEGFR-I binding to VEGF or P1GF. Optical density (OD) values were read on a microtiter plate reader (Molecular Devices Corp., Sunnyvale, Calif.). ED50 and IC50 of the antibodies were analyzed using GraphPad Prism 3 software (GraphPad Software, Inc., San Diego, Calif.).

[4] = target: T5, native VEGFR-1 expressed on the cell surface (human, UniProt P17948 27-1338); test: cell-based or functional assay
mouse VEGFR-2 Fc = target: T6, mouse VEGFR-2 Fc (mouse, UniProt P35918 20-762, limits assumed); test: ELISA: antibody dilutions on plate coated with 1 µg/ml mouse VEGFR-2 Fc, HRP secondary, O.D. 450
T6 construct: not shown: Fc part; not described
Procedure: as §1

[5] = target: T5, native VEGFR-1 expressed on the cell …; test: cell-based or functional assay; remark: listed apart in the source
[6] = target: T4, soluble recombinant human VEGFR-1 …; test: blocking ELISA: antibody preincubated with VEGFR-1 AP, binding to VEGF coated plate
Procedure: as §2

mouse VEGFR-1-AP = target: T7, mouse VEGFR-1-AP (mouse, UniProt P35969 23-759); test: ELISA: plate coated with mouse VEGFR-1-AP 100 ng/well, goat anti-human kappa-HRP, O.D. 450
T7 construct: From ImClone Systems; also called mouse VEGFR-I-AP; not shown: alkaline phosphatase fusion partner; not described
T7 sequence (looked up): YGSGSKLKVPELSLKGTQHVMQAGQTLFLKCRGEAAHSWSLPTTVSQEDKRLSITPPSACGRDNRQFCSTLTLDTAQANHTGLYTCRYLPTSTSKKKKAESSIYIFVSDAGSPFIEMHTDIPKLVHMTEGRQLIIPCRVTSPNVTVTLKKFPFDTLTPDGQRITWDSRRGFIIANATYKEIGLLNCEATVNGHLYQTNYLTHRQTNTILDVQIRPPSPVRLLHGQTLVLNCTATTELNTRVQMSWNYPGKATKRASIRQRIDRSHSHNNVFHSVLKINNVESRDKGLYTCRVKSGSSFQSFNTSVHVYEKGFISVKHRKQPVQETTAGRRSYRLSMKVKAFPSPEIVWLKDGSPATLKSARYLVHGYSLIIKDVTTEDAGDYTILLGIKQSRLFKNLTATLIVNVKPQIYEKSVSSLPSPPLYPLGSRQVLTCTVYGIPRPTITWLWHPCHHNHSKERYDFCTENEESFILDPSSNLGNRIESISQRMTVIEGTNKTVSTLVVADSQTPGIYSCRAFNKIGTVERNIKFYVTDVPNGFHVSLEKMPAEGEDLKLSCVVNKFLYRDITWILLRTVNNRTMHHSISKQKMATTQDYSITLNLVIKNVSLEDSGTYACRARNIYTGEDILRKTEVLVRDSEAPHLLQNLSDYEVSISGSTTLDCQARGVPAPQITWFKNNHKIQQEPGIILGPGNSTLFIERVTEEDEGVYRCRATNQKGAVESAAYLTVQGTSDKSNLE

[7] = target: T4, soluble recombinant human VEGFR-1 …; test: ELISA, purified antibody on rhuVEGFR-1 AP coated plate (given as ED50)
Procedure: as §2

T4 sequence (P17948 27-758): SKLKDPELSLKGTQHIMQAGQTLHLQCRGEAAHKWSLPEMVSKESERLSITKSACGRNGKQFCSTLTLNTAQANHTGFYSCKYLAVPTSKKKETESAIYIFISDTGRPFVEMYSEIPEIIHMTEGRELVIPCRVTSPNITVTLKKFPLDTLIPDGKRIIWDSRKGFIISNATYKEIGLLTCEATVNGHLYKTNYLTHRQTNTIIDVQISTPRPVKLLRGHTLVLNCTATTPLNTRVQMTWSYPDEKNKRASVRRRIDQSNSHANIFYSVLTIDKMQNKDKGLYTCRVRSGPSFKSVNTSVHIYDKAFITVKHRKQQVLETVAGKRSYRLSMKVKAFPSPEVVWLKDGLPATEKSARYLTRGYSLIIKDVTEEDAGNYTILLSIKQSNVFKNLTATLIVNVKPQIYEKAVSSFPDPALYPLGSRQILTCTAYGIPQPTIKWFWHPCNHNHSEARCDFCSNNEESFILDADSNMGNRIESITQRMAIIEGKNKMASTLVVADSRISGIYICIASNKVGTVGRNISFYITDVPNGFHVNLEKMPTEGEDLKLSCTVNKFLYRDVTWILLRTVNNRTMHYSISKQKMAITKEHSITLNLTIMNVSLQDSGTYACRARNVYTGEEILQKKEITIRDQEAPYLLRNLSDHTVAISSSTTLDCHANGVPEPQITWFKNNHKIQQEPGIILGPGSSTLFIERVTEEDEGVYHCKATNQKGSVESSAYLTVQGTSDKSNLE
T5 sequence (P17948 27-1338): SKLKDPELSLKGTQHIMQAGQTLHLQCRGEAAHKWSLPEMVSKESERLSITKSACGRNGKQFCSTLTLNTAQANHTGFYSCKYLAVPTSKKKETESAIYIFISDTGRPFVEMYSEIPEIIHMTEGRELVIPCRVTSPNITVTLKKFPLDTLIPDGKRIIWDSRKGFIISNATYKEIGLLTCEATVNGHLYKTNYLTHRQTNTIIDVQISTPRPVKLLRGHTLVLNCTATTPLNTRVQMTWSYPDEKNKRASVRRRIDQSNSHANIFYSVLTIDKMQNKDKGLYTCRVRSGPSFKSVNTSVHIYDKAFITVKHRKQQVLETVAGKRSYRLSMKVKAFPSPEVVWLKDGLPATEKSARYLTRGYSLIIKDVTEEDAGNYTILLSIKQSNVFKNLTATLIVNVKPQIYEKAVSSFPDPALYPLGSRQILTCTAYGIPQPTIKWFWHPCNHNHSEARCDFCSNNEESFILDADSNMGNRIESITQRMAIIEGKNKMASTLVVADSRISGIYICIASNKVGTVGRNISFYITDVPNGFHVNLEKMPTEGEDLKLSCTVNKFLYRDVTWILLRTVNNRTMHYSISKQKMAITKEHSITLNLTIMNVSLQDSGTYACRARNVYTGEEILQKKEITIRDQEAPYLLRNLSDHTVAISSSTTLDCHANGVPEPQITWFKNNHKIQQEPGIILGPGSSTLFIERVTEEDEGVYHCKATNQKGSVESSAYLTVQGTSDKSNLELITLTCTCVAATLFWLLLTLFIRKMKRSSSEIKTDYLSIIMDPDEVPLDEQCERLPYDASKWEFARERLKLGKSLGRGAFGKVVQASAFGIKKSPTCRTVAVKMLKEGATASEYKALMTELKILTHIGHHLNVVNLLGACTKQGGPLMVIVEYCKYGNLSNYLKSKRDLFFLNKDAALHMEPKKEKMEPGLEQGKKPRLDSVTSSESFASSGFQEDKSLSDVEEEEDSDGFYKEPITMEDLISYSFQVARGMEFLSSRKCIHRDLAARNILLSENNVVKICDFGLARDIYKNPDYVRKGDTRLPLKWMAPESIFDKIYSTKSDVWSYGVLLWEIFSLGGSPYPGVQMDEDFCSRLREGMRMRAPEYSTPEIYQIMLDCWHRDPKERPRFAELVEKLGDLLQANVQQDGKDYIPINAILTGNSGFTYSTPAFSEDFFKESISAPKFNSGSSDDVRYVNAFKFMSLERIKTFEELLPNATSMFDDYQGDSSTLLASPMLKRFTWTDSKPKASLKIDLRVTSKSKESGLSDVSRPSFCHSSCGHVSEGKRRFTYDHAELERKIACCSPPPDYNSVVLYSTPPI
T2 sequence (P17948 other isoform, or with tags, fused parts or gaps limits assumed): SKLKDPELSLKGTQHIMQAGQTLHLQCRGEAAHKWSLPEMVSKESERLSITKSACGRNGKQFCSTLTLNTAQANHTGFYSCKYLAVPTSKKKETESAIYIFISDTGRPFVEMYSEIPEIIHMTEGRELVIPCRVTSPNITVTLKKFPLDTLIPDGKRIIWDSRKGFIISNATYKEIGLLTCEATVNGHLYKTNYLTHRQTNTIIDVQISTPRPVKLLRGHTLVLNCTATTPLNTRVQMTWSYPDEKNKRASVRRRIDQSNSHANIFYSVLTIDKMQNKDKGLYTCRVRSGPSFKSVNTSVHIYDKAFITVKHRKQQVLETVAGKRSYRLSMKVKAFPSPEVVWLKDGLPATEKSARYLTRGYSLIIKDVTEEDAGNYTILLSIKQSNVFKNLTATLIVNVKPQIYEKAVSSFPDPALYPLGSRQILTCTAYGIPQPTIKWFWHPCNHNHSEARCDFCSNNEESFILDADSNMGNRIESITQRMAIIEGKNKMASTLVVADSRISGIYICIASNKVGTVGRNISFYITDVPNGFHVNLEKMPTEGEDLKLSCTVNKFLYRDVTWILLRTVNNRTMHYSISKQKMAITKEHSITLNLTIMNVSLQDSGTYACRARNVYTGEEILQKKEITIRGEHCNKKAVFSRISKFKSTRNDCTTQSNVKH
T3 sequence (P35968 20-764): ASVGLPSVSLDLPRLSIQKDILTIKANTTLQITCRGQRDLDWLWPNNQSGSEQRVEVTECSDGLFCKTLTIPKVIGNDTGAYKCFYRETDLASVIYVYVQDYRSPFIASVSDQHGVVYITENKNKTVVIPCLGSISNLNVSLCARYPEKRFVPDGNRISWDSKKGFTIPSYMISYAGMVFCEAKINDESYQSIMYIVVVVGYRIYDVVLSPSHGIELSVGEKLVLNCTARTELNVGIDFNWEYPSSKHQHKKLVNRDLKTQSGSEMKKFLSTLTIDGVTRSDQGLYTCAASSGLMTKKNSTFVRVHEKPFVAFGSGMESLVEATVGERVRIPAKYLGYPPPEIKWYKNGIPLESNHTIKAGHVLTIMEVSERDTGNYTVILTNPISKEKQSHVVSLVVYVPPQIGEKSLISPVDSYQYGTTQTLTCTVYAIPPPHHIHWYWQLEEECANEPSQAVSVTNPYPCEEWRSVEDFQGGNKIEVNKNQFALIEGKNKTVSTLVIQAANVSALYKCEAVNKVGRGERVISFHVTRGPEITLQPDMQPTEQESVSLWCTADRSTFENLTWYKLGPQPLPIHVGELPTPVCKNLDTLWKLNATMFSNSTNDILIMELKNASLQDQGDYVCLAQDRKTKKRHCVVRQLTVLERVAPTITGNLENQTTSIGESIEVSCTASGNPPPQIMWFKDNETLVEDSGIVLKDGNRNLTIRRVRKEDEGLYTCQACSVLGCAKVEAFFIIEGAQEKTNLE
T6 sequence (P35918 20-762 limits assumed): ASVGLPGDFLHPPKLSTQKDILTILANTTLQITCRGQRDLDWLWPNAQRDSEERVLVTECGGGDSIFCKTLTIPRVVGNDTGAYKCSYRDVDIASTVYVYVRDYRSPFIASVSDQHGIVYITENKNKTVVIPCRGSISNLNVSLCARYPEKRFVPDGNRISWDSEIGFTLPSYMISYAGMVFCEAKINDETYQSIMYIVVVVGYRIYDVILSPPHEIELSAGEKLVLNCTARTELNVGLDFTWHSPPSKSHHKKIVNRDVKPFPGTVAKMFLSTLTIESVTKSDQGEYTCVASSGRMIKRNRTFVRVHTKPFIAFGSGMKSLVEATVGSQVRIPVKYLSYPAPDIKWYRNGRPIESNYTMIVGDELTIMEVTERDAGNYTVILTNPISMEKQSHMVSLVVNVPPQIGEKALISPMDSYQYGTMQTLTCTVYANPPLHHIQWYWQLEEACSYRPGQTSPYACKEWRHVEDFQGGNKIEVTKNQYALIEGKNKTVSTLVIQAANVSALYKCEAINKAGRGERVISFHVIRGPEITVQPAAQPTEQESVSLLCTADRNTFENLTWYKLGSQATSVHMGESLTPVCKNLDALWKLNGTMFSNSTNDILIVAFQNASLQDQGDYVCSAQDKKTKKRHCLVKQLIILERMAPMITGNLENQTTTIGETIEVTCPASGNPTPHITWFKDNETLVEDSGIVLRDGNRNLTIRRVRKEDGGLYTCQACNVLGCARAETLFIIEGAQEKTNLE

B1: anti-human VEGFR-1 antibody 18F1 (antibody, V domains shown)
VH: QAQVVESGGGVVQSGRSLRLSCAASGFAFSSYGMHWVRQAPGKGLEWVAVIWYDGSNKYYADSVRGRFTISRDNSENTLYLQMNSLRAEDTAVYYCARDHYGSGVHHYFYYGLDVWGQGTTVTVSS
VL: not shown
notes: Fully human antibody (gamma heavy chain, kappa light chain) from hybridomas of KM transgenic mice, purified; The light chain entry runs a few residues into the kappa constant region; also called MC-18F1; IMC-18F1
For B1, the binding result (mouse VEGFR-1 Fc) was “no binding (tested: 1 µg/ml)”, the “EC50 (read off the curve)” value [1] was ~3 ng/mL and the binding result [2] was “no binding (tested: 1 µg/ml)”. For the same binder, the IC50 [3] was 0.55 nM, the “VEGF-A and P1GF stimulated proliferation of DU4475 breast carcinoma cells (estimated IC50)” value [4] was 30 to 50 nM and the binding result (mouse VEGFR-2 Fc) was “no binding (tested: 1 µg/ml)”. The “Inhibition of PlGF-induced DU4475 cell growth in vitro (IC50)” value [5] was 24 nM, the IC50 [6] was 0.84 nM and the binding result (mouse VEGFR-1-AP) was “no binding (tested: 1 µg/mL)”. It also gave an EC50 [7] of 0.1 nM.
